One may read the Kd as the free concentration of one partner at which half of the binding sites on the other are occupied at equilibrium, for simple one-to-one binding.

In experiment [1] the target is Alexa Fluor 488-labeled cRAD-TPX2_((7–43)) display protein (Pyrococcus furiosus | human) (UniProt O74036). Put plainly: fluorescence polarisation; fluorescence anisotropy, direct titration of kinase (CK2α 2 nM-2 μM; Aurora A D274N 2 nM-1.5 μM) into labelled peptide or display protein; 10 mM HEPES pH 7.4, 500 mM NaCl, 1 mM DTT, 0.05% P20; room temperature; 1:1 model. (In fluorescence polarisation assays a small probe gives low polarisation when free and higher when bound to something large.)

Experiment [2] addresses cRAD-TPX2_((7–43)) display protein (Pyrococcus furiosus | human) (UniProt O74036). Put plainly: SPR; Biacore T100, CM5, peptides or cRAD display proteins immobilised through their cysteine (240-400 RU), kinase as analyte 2.5 nM-2.5 μM, 25°C, 10 mM HEPES pH 7.4, 500 mM NaCl, 0.05% P20; 1:1 steady-state affinity model; CK2α data analysed at 200 s post-injection. In general terms: Surface plasmon resonance follows binding to a sensor surface in real time, without labels.

B1: Aurora A_(D274N) kinase domain (domain or fragment)
chain: ESKKRQWALEDFEIGRPLGKGKFGNVYLAREKQSKFILALKVLFKAQLEKAGVEHQLRREVEIQSHLRHPNILRLYGYFHDATRVYLILEYAPLGTVYRELQKLSKFDEQRTATYITELANALSYCHSKRVIHRDIKPENLLLGSAGELKIANFGWSVHAPSSRRTTLCGTLDYLPPEMIEGRMHDEKVDLWSLGVLCYEFLVGKPPFEANTYQETYKRISRVEFTFPDFVTEGARDLISRLLKHNPSQRPMLREVLEHPWITANSSKPSNCQNKESASKQS
On to B1, for which the values for the Kd in experiment [1] and in experiment [2] were 98 nM and 168 nM, respectively.

Source of the values: paper PMC5897841, “Development of a multipurpose scaffold for the display of peptide loops” (Protein Engineering, Design and Selection, 2017).
